Biological target: human DNMT1 fragment (residues 351-1600) (human) (UniProt P26358)
Assay: ITC

Substance | Kd
H3_(1-24)K9me3Ub2: H3 (1-24) K9me3 K18C/K23C peptide carrying two ubiquitin(G76C) through dichloroacetone linkage (from UniProt P68431;P0CG48) (complex) | 17 nM
H3_(1-24)Ub2: H3 (1-24) K18C/K23C peptide carrying two ubiquitin(G76C) through dichloroacetone linkage (from UniProt P68431;P0CG48) (complex) | 91 nM

From paper doi:10.1101/2020.04.27.064493
